Positions of bridges follow the written chain, without caps; N, C: chain ends. Non-standard residues stand in square brackets, D forms with d. Residues, ends and D or L forms follow the SMILES beside them. *: point of attachment. DOTA = O=C(O)CN1CCN(CC(=O)O)CCN(CC(=O)*)CCN(CC(=O)O)CC1; 1Nal = N[C@@H](Cc1cccc2ccccc12)C(=O)O; Thr(ol) = C[C@@H](O)[C@H](N)CO
Assay: Radiolysis during labelling reaction, with and without EtOH as radiolytic scavenger
Type: physicochemical
Details: final product vial, radio-HPLC, single test
Excerpt: The considerably high percentage of radiolysis in the final product vial (FPV), caused by the presence of free radicals in solution (e.g., superoxide or hydroxyl radicals), impaired the establishment of the most favourable labelling conditions. Although not explicitly measured, for higher activity concentrations, the radiolysis percentage was anticipated to increase. Several compounds are known to act as radiolytic stabilizers and protect against radiolysis. Antioxidant compounds, such as ascorbic acid (AA) and gentisic acid (GA), are commonly known to protect against radiolysis and are mainly described in the literature for radiolabelling biomolecules with β^--emitting radionuclides (e.g., yttrium-90 and luthetium-177). Notwithstanding, these compounds might have a negative impact on copper-based radiopharmaceuticals, given the redox properties of copper. […] To evaluate the applicability of EtOH as a radiolytic scavenger for ^61Cu-based radiopharmaceuticals, a single test with and without EtOH was performed before establishing optimal labelling conditions. […] Compared with the labelling of [^61Cu]Cu-DOTA-NOC without EtOH (Figure 4A), it is evident that there is a significant decrease in the rate of radiolysis using the ethanol-based method (Figure 4B–D). […] Based on these findings, the use of EtOH was implemented in all further labelling formulations to act as a radiolytic stabilizing agent during the labelling reaction.
Figure 4 Representative chromatograms of [^61Cu]Cu-DOTA-NOC, [^61Cu]Cu-DOTA-TOC and [^61Cu]Cu-DOTA-TATE without (A) and with (B–D) using EtOH (maximum 5 vol% EtOH) during the labelling reaction. Two different HPLC methods were used, as described in Table 4. For a more practical comparative analysis between chromatograms, raw data was normalised as percentage of total radioactivity. Percentage of radiolysis is the ratio of radiolysis counts to total counts. TEXT PRINTED IN THE PICTURE: (A) [^61Cu]Cu-DOTA-NOC: Radiolysis: > 15% | (B) [^61Cu]Cu-DOTA-NOC: Radiolysis: < 5% | (C) [^61Cu]Cu-DOTA-TOC: Radiolysis: < 1% | (D) [^61Cu]Cu-DOTA-TATE: Radiolysis: < 1%
RCP was measured by HPLC (Agilent 1200 series HPLC system, Agilent Technologies, Santa Clara, CA, USA) equipped with a GABIStar NaI(Tl) radiometric detector (Raytest Isotopenmessgeraete GmbH, Straubenhardt, Germany) (20 μL sample volume). Two different methods (Table 4) were used, one for [^61Cu]Cu-DOTA-NOC (Method A) and a second to evaluate both [^61Cu]Cu-DOTA-TATE and [^61Cu]Cu-DOTA-TOC (Method B). An ACE 3 C18 150 × 3 mm HPLC column (ACE, Reading, UK) was used in both methods, and the flow was fixed at 0.6 mL/min.

[1] = labelling with EtOH up to 300 μL (maximum 5 vol% EtOH)

C[C@@H](O)[C@@H]1NC(=O)[C@H](CCCCN)NC(=O)[C@@H](Cc2c[nH]c3ccccc23)NC(=O)[C@H](Cc2cccc3ccccc23)NC(=O)[C@@H](NC(=O)[C@@H](Cc2ccccc2)NC(=O)CN2CCN(CC(=O)O)CCN(CC(=O)O)CCN(CC(=O)O)CC2)CSSC[C@@H](C(=O)N[C@H](CO)[C@@H](C)O)NC1=O [[^61Cu]Cu-DOTA-NOC, metal not drawn] ({DOTA}-[dF]C[1Nal][dW]KTC[Thr(ol)]; disulfide 2-7 (inferred))
Radiolysis (ratio of radiolysis counts to total counts) [1]: less than 5% | Radiolysis (ratio of radiolysis counts to total counts) (labelling without EtOH): more than 15%

C[C@@H](O)[C@H](NC(=O)[C@@H]1CSSC[C@H](NC(=O)[C@@H](Cc2ccccc2)NC(=O)CN2CCN(CC(=O)O)CCN(CC(=O)O)CCN(CC(=O)O)CC2)C(=O)N[C@@H](Cc2ccc(O)cc2)C(=O)N[C@H](Cc2c[nH]c3ccccc23)C(=O)N[C@@H](CCCCN)C(=O)N[C@@H]([C@@H](C)O)C(=O)N1)C(=O)O [[^61Cu]Cu-DOTA-TATE, metal not drawn]
Radiolysis (ratio of radiolysis counts to total counts) [1]: less than 1%

C[C@@H](O)[C@@H]1NC(=O)[C@H](CCCCN)NC(=O)[C@@H](Cc2c[nH]c3ccccc23)NC(=O)[C@H](Cc2ccc(O)cc2)NC(=O)[C@@H](NC(=O)[C@@H](Cc2ccccc2)NC(=O)CN2CCN(CC(=O)O)CCN(CC(=O)O)CCN(CC(=O)O)CC2)CSSC[C@@H](C(=O)N[C@H](CO)[C@@H](C)O)NC1=O [[^61Cu]Cu-DOTA-TOC, metal not drawn]
Radiolysis (ratio of radiolysis counts to total counts) [1]: less than 1%

Source: publication PMC9231368, “Production of GMP-Compliant Clinical Amounts of Copper-61 Radiopharmaceuticals from Liquid Targets” (Pharmaceuticals, 2022)
